The values that follow come from US20240383959A1, “CELL-FREE METHODS AND COMPOSITIONS COMPRISING TAGLESS THERAPEUTIC HORMONES” (Northwestern University, priority 2021, published 2024).

The subject of assay [1] is Escherichia coli MG1655. Put plainly: Plate-based growth inhibition assay. The class given is cell-based. The note with it: overnight incubation, 384 well plate, two replicates; peptide purified from CFPS. How it is done:
Antimicrobial peptide activity was tested with a plate-based growth inhibition study. A 5 ml culture of Escherichia coli MG1655 was grown overnight on Luria Broth (LB) from a glycerol stock. On the day of the assay, the overnight culture was diluted to an OD of 0.08 in LB and then grown to mid log phase (OD ˜0.5). The mid log phase cells were diluted to […] (assuming 1 OD=8×10^8 cells/ml) into LB with 0.005% Antifoam 204 (Sigma A6426) and 1 mg/ml BSA (Sigma-Aldrich A2153-100G). 5 μl of these cells were added to 10 μl of purified antimicrobial peptide in a UV-sterilized 384 well, clear bottom plate (Greiner Bio-One 781096). Positive controls included 10 μl of the wash buffer the hormones were dissolved in and 10 μl of a no DNA control where no DNA template was added to the CFPS reactions, but the sample was treated exactly like the other antimicrobial peptide samples. Negative controls included a final kanamycin concentration of 50 μg/ml and adding 10 μl of the LB with 0.005% Antifoam 204 and 1 mg/ml BSA without E. coli cells. The plate was sealed with a microseal B adhesive (Bio-Rad MSB1001) and incubated in a plate reader with continuous shaking for 18 hr at 37° C. and absorbance measurements at 600 nm every 15 min.

The target of assay [2] is T1, extracellular domain of PTH receptor (Homo sapiens, UniProt Q03431).
T1 construct: purchased Abcam ab182670
T1 sequence (Q03431 27-186 limits assumed): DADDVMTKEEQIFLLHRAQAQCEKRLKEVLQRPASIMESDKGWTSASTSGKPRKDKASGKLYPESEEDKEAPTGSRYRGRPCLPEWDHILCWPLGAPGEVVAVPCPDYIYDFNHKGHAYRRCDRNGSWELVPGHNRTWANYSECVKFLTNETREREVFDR
Put plainly: AlphaLISA cross-titration of PTH and PTH receptor. The format is binding. As to conditions: sFLAG-tagged PTH, anti-FLAG donor beads; His-tagged PTH receptor, nickel chelate acceptor beads. (In general: Alpha assays give light when donor and acceptor beads are brought close together.)

Assay [3] addresses T2, parathyroid hormone receptor (Homo sapiens, UniProt Q03431).
T2 construct: purchased R&D systems 5709-PR-50
T2 sequence (Q03431 27-186 limits assumed): T1 sequence (Q03431 27-186 limits assumed)
The assay can be described thus: Biolayer interferometry (BLI) of PTH binding to its receptor. The note with it: undiluted CFPS PTH or 67 μg/ml commercial PTH; with and without receptor on tip. The source says:
In fact, the entire sequences except for the two N-terminal and C-terminal amino acids were confirmed for both GLP-1 mutant and GLP-1 in these experiments. The peptide hormones are cleaved precisely at the C-terminus of SUMO to give tagless hormones as expected. […] There was low signal relative to GH, however, the binding signal is still more than 3 standard deviations above the background noise. Unfortunately, this binding was unable to be confirmed with BLI, likely because the hormone is too small (3.5 kDa) to generate enough of a wavelength shift to be detected by the instrument (FIG. 9f). […] Full-length parathyroid hormone was detected in the deconvoluted LC-MS spectra with an observed mass of 9424.66 Da, which matches the theoretical mass of 9424.73 Da with an error of 7.4 ppm (FIG. 10a). PTH was also detected by two orthogonal antibodies in a commercial sandwich ELISA assay (Biomatik EKF58372). The concentration was determined to be 24±11 μg/ml with 4 dilutions of a single sample (FIG. 10a). This value is approximately 80% of that detected by BCA and densitometry. […] Black lines represent a commercially purchased positive control PTH (OriGene SA6052) where there is no receptor immobilized on the lightly shaded line and receptor immobilized with the dark line. […]
In general terms: In BLI a coated tip is dipped into the sample, and binding shifts an interference pattern.

Take Melittin: the “Growth of E. coli MG1655” value in assay [1] is recorded as “inhibiting growth of the bacteria”. On to Parathyroid Hormone [PTH], for which the “PTH interaction with extracellular domain of its receptor (AlphaLISA)” value in assay [2] is on record as “very low signal that has a typical binding pattern”. Besides, the “PTH binding to extracellular domain of its receptor (BLI)” value in assay [3] is listed as “unable to detect PTH binding”.

On to “positive control PTH: commercially purchased positive control PTH (OriGene SA6052) [reference compound]”, for which the “PTH binding to extracellular domain of its receptor (BLI)” value in assay [3] is recorded as “high background binding”.
